Results reported in paper PMC8065156, “Specificity of AMPylation of the human chaperone BiP is mediated by TPR motifs of FICD” (Nature Communications, 2021).

Legend:
[1] = molecular target: T1, BiP 19–654 (human, UniProt P11021 19-654)
[2] = molecular target: T1, BiP 19–654; remark: listed apart in the source

T1 sequence (P11021 19-654): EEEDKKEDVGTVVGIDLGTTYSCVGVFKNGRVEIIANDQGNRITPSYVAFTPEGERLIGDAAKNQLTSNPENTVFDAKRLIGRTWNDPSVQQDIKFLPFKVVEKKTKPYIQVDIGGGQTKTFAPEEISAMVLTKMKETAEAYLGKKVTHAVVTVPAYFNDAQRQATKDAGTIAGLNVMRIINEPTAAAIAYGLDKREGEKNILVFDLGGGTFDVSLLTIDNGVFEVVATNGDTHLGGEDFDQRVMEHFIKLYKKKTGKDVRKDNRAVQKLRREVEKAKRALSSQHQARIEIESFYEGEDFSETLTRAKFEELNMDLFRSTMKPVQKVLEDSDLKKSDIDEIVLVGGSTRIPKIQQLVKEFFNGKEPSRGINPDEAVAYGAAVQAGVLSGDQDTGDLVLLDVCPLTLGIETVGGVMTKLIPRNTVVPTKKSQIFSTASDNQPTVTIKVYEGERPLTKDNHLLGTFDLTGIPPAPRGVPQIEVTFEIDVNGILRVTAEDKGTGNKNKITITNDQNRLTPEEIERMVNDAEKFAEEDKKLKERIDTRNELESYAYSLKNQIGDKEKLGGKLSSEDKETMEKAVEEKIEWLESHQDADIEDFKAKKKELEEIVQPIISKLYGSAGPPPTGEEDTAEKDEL

AMPylation of BiP 19–654 WT by the FICD 102–458 L258D mutant, 30 min, western blot with αAMP antibody, against FICD L258D [1] [% reduction] | AMPylation of BiP 19–654 WT by the FICD 102–458 L258D Fic-domain mutant, 30 min, western blot with αAMP antibody, against FICD L258D [2] | Binder
80 |  | FICD 102–458 L258D E105A (enzyme) GKLAARAALNQALEMKRQGKREKAQKLFMHALKMDPDFVDALTEFGIFSEEDKDIIQADYLYTRALTISPYHEKALVNRDRTLPLVEEIDQRYFSIIDSKVKKVMSIPKGNSALRRVMEETYYHHIYHTVAIEGNTLTLSEIRHILETRYAVPGKSDEEQNEVIGMHAAMKYINTTLVSRIGSVTISDVLEIHRRVLGYVDPVEAGRFRTTQVLVGHHIPPHPQDVEKQMQEFVQWLNSEEAMNLHPVEFAALAHYKLVYIHPFIDGNGRTSRLLMNLILMQAGYPPITIRKEQRSDYYHVLEAANEGDVRPFIRFIAKCTETTLDTLLFATTEYSVALPEAQPNHSGFKETLPVKP
 | 60 % impaired | FICD 102–458 L258D H401A (enzyme) GKLEARAALNQALEMKRQGKREKAQKLFMHALKMDPDFVDALTEFGIFSEEDKDIIQADYLYTRALTISPYHEKALVNRDRTLPLVEEIDQRYFSIIDSKVKKVMSIPKGNSALRRVMEETYYHHIYHTVAIEGNTLTLSEIRHILETRYAVPGKSDEEQNEVIGMHAAMKYINTTLVSRIGSVTISDVLEIHRRVLGYVDPVEAGRFRTTQVLVGHHIPPHPQDVEKQMQEFVQWLNSEEAMNLHPVEFAALAHYKLVYIHPFIDGNGRTSRLLMNLILMQAGYPPITIRKEQRSDYYAVLEAANEGDVRPFIRFIAKCTETTLDTLLFATTEYSVALPEAQPNHSGFKETLPVKP

Second part, the binder before the results:

Binder | AMPylation of BiP 19–654 WT by the FICD 102–458 L258D mutant, 30 min, western blot with αAMP antibody, against FICD L258D [1] [% reduction] | AMPylation of BiP 19–654 WT by the FICD 102–458 L258D Fic-domain mutant, 30 min, western blot with αAMP antibody, against FICD L258D [2]
FICD 102–458 L258D K124A (enzyme) GKLEARAALNQALEMKRQGKREAAQKLFMHALKMDPDFVDALTEFGIFSEEDKDIIQADYLYTRALTISPYHEKALVNRDRTLPLVEEIDQRYFSIIDSKVKKVMSIPKGNSALRRVMEETYYHHIYHTVAIEGNTLTLSEIRHILETRYAVPGKSDEEQNEVIGMHAAMKYINTTLVSRIGSVTISDVLEIHRRVLGYVDPVEAGRFRTTQVLVGHHIPPHPQDVEKQMQEFVQWLNSEEAMNLHPVEFAALAHYKLVYIHPFIDGNGRTSRLLMNLILMQAGYPPITIRKEQRSDYYHVLEAANEGDVRPFIRFIAKCTETTLDTLLFATTEYSVALPEAQPNHSGFKETLPVKP | > 98 | 
FICD 102–458 L258D K121A (enzyme) GKLEARAALNQALEMKRQGAREKAQKLFMHALKMDPDFVDALTEFGIFSEEDKDIIQADYLYTRALTISPYHEKALVNRDRTLPLVEEIDQRYFSIIDSKVKKVMSIPKGNSALRRVMEETYYHHIYHTVAIEGNTLTLSEIRHILETRYAVPGKSDEEQNEVIGMHAAMKYINTTLVSRIGSVTISDVLEIHRRVLGYVDPVEAGRFRTTQVLVGHHIPPHPQDVEKQMQEFVQWLNSEEAMNLHPVEFAALAHYKLVYIHPFIDGNGRTSRLLMNLILMQAGYPPITIRKEQRSDYYHVLEAANEGDVRPFIRFIAKCTETTLDTLLFATTEYSVALPEAQPNHSGFKETLPVKP | > 98 | 
FICD 102–458 L258D R396A (enzyme) GKLEARAALNQALEMKRQGKREKAQKLFMHALKMDPDFVDALTEFGIFSEEDKDIIQADYLYTRALTISPYHEKALVNRDRTLPLVEEIDQRYFSIIDSKVKKVMSIPKGNSALRRVMEETYYHHIYHTVAIEGNTLTLSEIRHILETRYAVPGKSDEEQNEVIGMHAAMKYINTTLVSRIGSVTISDVLEIHRRVLGYVDPVEAGRFRTTQVLVGHHIPPHPQDVEKQMQEFVQWLNSEEAMNLHPVEFAALAHYKLVYIHPFIDGNGRTSRLLMNLILMQAGYPPITIRKEQASDYYHVLEAANEGDVRPFIRFIAKCTETTLDTLLFATTEYSVALPEAQPNHSGFKETLPVKP |  | 95 % decrease
